What was measured:
Cas12m2 (SPR prep) = biological target: T1, Cas12m2 (SPR prep) (UniProt PDB:8HIO_2 1-596); assay: SPR; 5 mM Mg2+; two-state fit, 8-63 nM RNP; SPR: 20 mM HEPES pH 7.8, 150 mM KCl, 10% glycerol, 5 mM MgCl2, 1 mM DTT, 0.05% Tween-20, 25 C; cryo-EM: 20 mM HEPES-NaOH pH 7.6, 50 mM NaCl, 2 mM MgCl2, 10 uM ZnCl2; conditions: protein: recombinant; tags: pML-1B vector, nickel-purified (His); label: 5'-biotin on DNA top strand; guide pairs with DNA top strand; DNA blunt 50-bp duplex
T1 sequence: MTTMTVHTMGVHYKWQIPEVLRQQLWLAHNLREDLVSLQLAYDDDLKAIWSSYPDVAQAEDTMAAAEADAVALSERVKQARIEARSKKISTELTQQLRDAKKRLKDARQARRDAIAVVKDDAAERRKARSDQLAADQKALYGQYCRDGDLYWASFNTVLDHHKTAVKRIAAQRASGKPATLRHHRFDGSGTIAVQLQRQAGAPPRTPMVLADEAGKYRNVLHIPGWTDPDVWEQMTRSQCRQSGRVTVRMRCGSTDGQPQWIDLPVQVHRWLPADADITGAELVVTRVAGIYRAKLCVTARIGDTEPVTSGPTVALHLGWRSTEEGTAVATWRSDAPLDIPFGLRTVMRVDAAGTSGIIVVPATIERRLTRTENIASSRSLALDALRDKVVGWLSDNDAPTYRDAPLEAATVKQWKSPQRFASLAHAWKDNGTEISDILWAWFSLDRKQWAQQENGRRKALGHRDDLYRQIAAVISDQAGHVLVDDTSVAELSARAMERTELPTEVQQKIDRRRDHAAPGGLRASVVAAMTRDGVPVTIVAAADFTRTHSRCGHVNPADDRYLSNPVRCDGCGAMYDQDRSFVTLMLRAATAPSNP

Cas12m2 = biological target: T2, Cas12m2 (UniProt PDB:8HIO_2 1-596); assay: cryo-EM; full R-loop state (state I), 17-bp heteroduplex; Mg2+, Zn2+; SPR: 20 mM HEPES pH 7.8, 150 mM KCl, 10% glycerol, 5 mM MgCl2, 1 mM DTT, 0.05% Tween-20, 25 C; cryo-EM: 20 mM HEPES-NaOH pH 7.6, 50 mM NaCl, 2 mM MgCl2, 10 uM ZnCl2; conditions: protein: recombinant; tags: N-terminal His6; crRNA guide pairs with S4 (17 bp, R-loop); S4/S5 blunt 36-bp duplex
T2 sequence: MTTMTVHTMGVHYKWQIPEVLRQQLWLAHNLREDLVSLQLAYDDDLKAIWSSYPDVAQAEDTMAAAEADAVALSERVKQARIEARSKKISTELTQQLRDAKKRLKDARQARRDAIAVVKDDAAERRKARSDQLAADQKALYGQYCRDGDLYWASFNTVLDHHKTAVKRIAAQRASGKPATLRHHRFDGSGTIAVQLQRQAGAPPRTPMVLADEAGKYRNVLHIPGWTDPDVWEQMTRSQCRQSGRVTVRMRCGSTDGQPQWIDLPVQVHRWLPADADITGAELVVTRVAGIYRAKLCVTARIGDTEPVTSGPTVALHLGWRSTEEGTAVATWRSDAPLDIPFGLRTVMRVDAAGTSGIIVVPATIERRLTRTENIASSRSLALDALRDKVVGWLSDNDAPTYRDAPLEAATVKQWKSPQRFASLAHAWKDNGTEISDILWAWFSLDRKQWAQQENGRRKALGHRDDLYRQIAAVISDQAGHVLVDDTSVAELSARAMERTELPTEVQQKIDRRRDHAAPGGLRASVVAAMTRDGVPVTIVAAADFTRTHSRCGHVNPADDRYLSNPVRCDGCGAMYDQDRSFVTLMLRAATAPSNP

Cas12m2 (binary complex) = biological target: T3, Cas12m2 (binary complex) (UniProt PDB:8HIO_2 1-596); assay: cryo-EM; binary complex; SPR: 20 mM HEPES pH 7.8, 150 mM KCl, 10% glycerol, 5 mM MgCl2, 1 mM DTT, 0.05% Tween-20, 25 C; cryo-EM: 20 mM HEPES-NaOH pH 7.6, 50 mM NaCl, 2 mM MgCl2, 10 uM ZnCl2; conditions: protein: recombinant; tags: N-terminal His6; chain copies: 2; stem and pseudoknot scaffold
T3 sequence: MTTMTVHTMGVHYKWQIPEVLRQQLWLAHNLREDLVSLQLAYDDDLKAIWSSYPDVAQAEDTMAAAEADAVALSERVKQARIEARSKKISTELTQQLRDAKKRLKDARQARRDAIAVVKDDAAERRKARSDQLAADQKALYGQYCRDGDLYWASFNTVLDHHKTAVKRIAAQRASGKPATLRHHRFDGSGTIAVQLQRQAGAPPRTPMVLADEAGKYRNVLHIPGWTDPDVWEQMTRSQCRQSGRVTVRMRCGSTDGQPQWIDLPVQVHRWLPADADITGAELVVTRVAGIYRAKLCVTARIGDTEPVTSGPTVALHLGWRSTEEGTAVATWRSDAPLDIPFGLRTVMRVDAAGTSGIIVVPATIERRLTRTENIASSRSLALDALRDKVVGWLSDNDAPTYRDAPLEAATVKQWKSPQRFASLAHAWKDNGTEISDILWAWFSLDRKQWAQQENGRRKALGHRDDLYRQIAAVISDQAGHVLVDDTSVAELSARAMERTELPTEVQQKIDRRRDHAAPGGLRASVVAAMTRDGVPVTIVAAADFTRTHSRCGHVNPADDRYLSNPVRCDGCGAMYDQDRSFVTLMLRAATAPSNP

B1: PAM-SCNR RNA + 50-bp target dsDNA (mixed)
RNA: GUGUCAUAGCCCAGCUUGGCGGGCGAAGGCCAAGACGUCGAGUGCAAAACCUUUCG
DNA 1: CAGCTATAGTTCTCGAAAGGTTTTGCACTCGACTAAAGGACTCTATGACC
DNA 2: GGTCATAGAGTCCTTTAGTCGAGTGCAAAACCTTTCGAGAACTATAGCTG
Kd (Cas12m2 (SPR prep)): ~2.7 nM

B2: crRNA (56 nt) + 36-bp target DNA (TTG PAM) (mixed)
RNA: GUGUCAUAGCCCAGCUUGGCGGGCGAAGGCCAAGACGGAGAUGAGGUGCGCGUGGC
DNA 1: GATGGTGCCACGCGCACCTCATCTCCCAAATAGACA
DNA 2: TGTCTATTTGGGAGATGAGGTGCGCGTGGCACCATC
binding result (Cas12m2): binds

B3: crRNA (56 nt) (structured_RNA)
RNA: GUGUCAUAGCCCAGCUUGGCGGGCGAAGGCCAAGACGGAGAUGAGGUGCGCGUGGC
binding result (Cas12m2 (binary complex)): binds

Reference: article PMC10442227, “Mechanistic and evolutionary insights into a type V-M CRISPR–Cas effector enzyme”
